Here are results for 14 molecules from patent US20220048967A1 (published 2022).

What all share (experiment): cell-based or functional assay
For assay [1], the target named is T1, human gastric inhibitory peptide receptor (GIPR) (human, UniProt P48546 22-466).
T1 sequence (looked up): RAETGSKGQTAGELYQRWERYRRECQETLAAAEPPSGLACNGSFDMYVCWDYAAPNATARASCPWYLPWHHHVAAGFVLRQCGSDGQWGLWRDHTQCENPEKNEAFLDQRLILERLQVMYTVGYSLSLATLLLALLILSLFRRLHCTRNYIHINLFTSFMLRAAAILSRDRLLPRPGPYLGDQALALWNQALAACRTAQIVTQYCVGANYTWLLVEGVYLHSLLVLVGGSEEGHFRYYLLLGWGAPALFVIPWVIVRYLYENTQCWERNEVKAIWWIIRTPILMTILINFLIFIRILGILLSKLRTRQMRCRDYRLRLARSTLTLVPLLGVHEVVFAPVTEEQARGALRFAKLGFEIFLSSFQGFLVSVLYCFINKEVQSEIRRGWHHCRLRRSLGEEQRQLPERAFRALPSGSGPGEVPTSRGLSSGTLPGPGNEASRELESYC

For assay [2], the target named is human GLP-1 receptor (GLP-1R) (human, UniProt P43220 24-463).
Assay [3] addresses human GLP-1 receptor (human, UniProt P43220 24-463).
The target of assay [4] is Pro-Link-tagged Human GLP-1R (human, UniProt P43220 24-463).
Throughout, for hGIPR cAMP EC50 ratio: reference of the scale not given here.
Throughout, for hGLP1R B-Arrestin2 % Top: reference of the scale not given here.
Throughout, for hGLP1R GTPgS % Top: reference of the scale not given here.
Throughout, for hGLP1R cAMP EC50 ratio: reference of the scale not given here.

B1: Example 361 (peptide)
peptide: XXEGTFTSDYSIXLDKKAQXAFVXYLIAGGPSSGAPPPS
modifications: D-Tyr1; Aib2; αMeL13; K17 conjugated to (2-[2-(2-Amino-ethoxy)-ethoxy]-acetyl)2-(γ-Glu)-CO-(CH2)18-CO2H; Aib20; D-Glu24; C-terminal amide
On to B1, for which, in assay [1], the “hGIPR cAMP EC50 ratio” value was 0.261 ratio and the “hGIPR cAMP Rel EC50” value was 0.401 nM. Besides, in assay [2], the “hGLP1R cAMP EC50 ratio” value was found to be 0.0259 ratio and the “hGLP1R cAMP Rel EC50” value amounted to 0.955 nM.

B2: Example 380 (peptide)
peptide: XXEGTFTSDYSIXLDXKAQXEFIEXLIEGGPSSGAPPPS
modifications: D-Tyr1, Aib2, αMeL13, Orn16, K17 conjugated to (2-[2-(2-Amino-ethoxy)-ethoxy]-acetyl)2-(γ-Glu)-CO-(CH2)18-CO2H, Aib20, αMeY25, C-terminal amide (NH2)
Regarding B2, in assay [3], the “hGLP1R GTPgS % Top” value worked out at 66.8% and the “hGLP1R GTPgS Rel EC50” value was determined as 0.188 nM. In assay [4], the “hGLP1R B-Arrestin2 % Top” value was determined as 35% and the “hGLP1R B-Arrestin2 Rel EC50” value was 13.7 nM.

B3: Example 377 (peptide)
peptide: XXEGTFTSDYSIXLDXKAQXAFIEXLIAGGPSSGAPPPS
modifications: D-Tyr1, Aib2, αMeL13, Orn16, K17 conjugated to (2-[2-(2-Amino-ethoxy)-ethoxy]-acetyl)2-(γ-Glu)-CO-(CH2)16-CO2H, Aib20, αMeY25, C-terminal amide (NH2)
Take B3: in assay [3], the “hGLP1R GTPgS % Top” value came to 68.4% and the “hGLP1R GTPgS Rel EC50” value was 0.356 nM. In assay [4], the “hGLP1R B-Arrestin2 % Top” value came to 16.7% and the “hGLP1R B-Arrestin2 Rel EC50” value was found to be 5.32 nM.

B4: Example 375 (peptide)
peptide: XXEGTFTSDYSIXLDXKAQXEFIEXLIAGGPSSGAPPPS
modifications: D-Tyr1, Aib2, αMeL13, Orn16, K17 conjugated to (2-[2-(2-Amino-ethoxy)-ethoxy]-acetyl)2-(γ-Glu)-CO-(CH2)16-CO2H, Aib20, αMeY25, C-terminal amide (NH2)
On to B4, for which, in assay [3], the “hGLP1R GTPgS % Top” value worked out at 70.4% and the “hGLP1R GTPgS Rel EC50” value was determined as 0.419 nM. In assay [4], the “hGLP1R B-Arrestin2 % Top” value turned out to be 24.2% and the “hGLP1R B-Arrestin2 Rel EC50” value is 11.4 nM.

B5: Example 366 (peptide)
peptide: XXEGTFTSDYSIXLDXKAQXAFIEXLIAGGPSSGAPPPS
modifications: D-Tyr1; Aib2; αMeL13; Orn16; K17 conjugated to (2-[2-(2-Amino-ethoxy)-ethoxy]-acetyl)2-(γ-Glu)-CO-(CH2)18-CO2H; Aib20; αMeY25; C-terminal amide
Consider B5, for which, in assay [1], the “hGIPR cAMP EC50 ratio” value was found to be 0.598 ratio and the “hGIPR cAMP Rel EC50” value is 0.0889 nM. Moreover, in assay [2], the “hGLP1R cAMP EC50 ratio” value was found to be 0.074 ratio and the “hGLP1R cAMP Rel EC50” value stood at 0.366 nM.

B6: Example 362 (peptide)
peptide: XXEGTFTSDYSIXLDXKAQXAFVXYLIAGGPSSGAPPPS
modifications: D-Tyr1; Aib2; αMeL13; Orn16; K17 conjugated to (2-[2-(2-Amino-ethoxy)-ethoxy]-acetyl)2-(γ-Glu)-CO-(CH2)18-CO2H; Aib20; D-Glu24; C-terminal amide
Consider B6, for which, in assay [1], the “hGIPR cAMP EC50 ratio” value stood at 0.347 ratio and the “hGIPR cAMP Rel EC50” value is 0.302 nM. In assay [2], the “hGLP1R cAMP EC50 ratio” value is 0.0805 ratio and the “hGLP1R cAMP Rel EC50” value was determined as 0.365 nM.

B7: Example 379 (peptide)
peptide: XXEGTFTSDYSIXLDKKAQXEFIEXLIEGGPSSGAPPPS
modifications: D-Tyr1, Aib2, αMeL13, K17 conjugated to (2-[2-(2-Amino-ethoxy)-ethoxy]-acetyl)2-(γ-Glu)-CO-(CH2)18-CO2H, Aib20, αMeY25, C-terminal amide (NH2)
Turning to B7, in assay [3], the “hGLP1R GTPgS % Top” value came to 71% and the “hGLP1R GTPgS Rel EC50” value turned out to be 0.239 nM. In assay [4], the “hGLP1R B-Arrestin2 % Top” value was 31.9% and the “hGLP1R B-Arrestin2 Rel EC50” value is 18.1 nM.

B8: Example 366 (peptide)
peptide: XXEGTFTSDYSIXLDXKAQXAFIEXLIAGGPSSGAPPPS
modifications: D-Tyr1, Aib2, αMeL13, Orn16, K17 conjugated to (2-[2-(2-Amino-ethoxy)-ethoxy]-acetyl)2-(γ-Glu)-CO-(CH2)18-CO2H, Aib20, αMeY25, C-terminal amide (NH2)
B8: in assay [3], the “hGLP1R GTPgS % Top” value is 67.6% and the “hGLP1R GTPgS Rel EC50” value turned out to be 0.409 nM. Moreover, in assay [4], the “hGLP1R B-Arrestin2 % Top” value was 21.2% and the “hGLP1R B-Arrestin2 Rel EC50” value amounted to 5.57 nM.

B9: Example 365 (peptide)
peptide: XXEGTFTSDYSIXLDKKAQXAFIEXLIAGGPSSGAPPPS
modifications: D-Tyr1; Aib2; αMeL13; K17 conjugated to (2-[2-(2-Amino-ethoxy)-ethoxy]-acetyl)2-(γ-Glu)-CO-(CH2)18-CO2H; Aib20; αMeY25; C-terminal amide
As to B9, in assay [1], the “hGIPR cAMP EC50 ratio” value was 0.784 ratio and the “hGIPR cAMP Rel EC50” value worked out at 0.0678 nM. For the same molecule, in assay [2], the “hGLP1R cAMP EC50 ratio” value was 0.155 ratio and the “hGLP1R cAMP Rel EC50” value turned out to be 0.175 nM.

B10: Example 368 (peptide)
peptide: XXEGTFTSDYSIXLDXKAQXEFIEYLIAGGPSSGAPPPS
modifications: D-Tyr1; Aib2; αMeL13; Orn16; K17 conjugated to (2-[2-(2-Amino-ethoxy)-ethoxy]-acetyl)2-(γ-Glu)-CO-(CH2)16-CO2H; Aib20; C-terminal amide
For the molecule B10, in assay [1], the “hGIPR cAMP EC50 ratio” value stood at 0.109 ratio and the “hGIPR cAMP Rel EC50” value turned out to be 0.0757 nM. Further, in assay [2], the “hGLP1R cAMP EC50 ratio” value is 0.299 ratio and the “hGLP1R cAMP Rel EC50” value is 0.108 nM.

B11: Example 369 (peptide)
peptide: XXEGTFTSDYSIXLDXKAQXDFIEYLIAGGPSSGAPPPS
modifications: D-Tyr1, Aib2, αMeL13, Orn16, K17 conjugated to (2-[2-(2-Amino-ethoxy)-ethoxy]-acetyl)2-(γ-Glu)-CO-(CH2)18-CO2H, Aib20, C-terminal amide (NH2)
On to B11, for which, in assay [3], the “hGLP1R GTPgS % Top” value was found to be 58.8% and the “hGLP1R GTPgS Rel EC50” value worked out at 0.381 nM. Also, in assay [4], the “hGLP1R B-Arrestin2 % Top” value was found to be 19.9% and the “hGLP1R B-Arrestin2 Rel EC50” value is 41.4 nM.

B12: Example 376 (peptide)
peptide: XXEGTFTSDYSIXLDKKAQXAFIEXLIAGGPSSGAPPPS
modifications: D-Tyr1, Aib2, αMeL13, K17 conjugated to (2-[2-(2-Amino-ethoxy)-ethoxy]-acetyl)2-(γ-Glu)-CO-(CH2)16-CO2H, Aib20, αMeY25, C-terminal amide (NH2)
As for B12, in assay [3], the “hGLP1R GTPgS % Top” value came out at 72.6% and the “hGLP1R GTPgS Rel EC50” value stood at 0.326 nM. Further, in assay [4], the “hGLP1R B-Arrestin2 % Top” value is 25.6% and the “hGLP1R B-Arrestin2 Rel EC50” value was found to be 12.3 nM.

B13: Example 370 (peptide)
peptide: XXEGTFTSDYSIXLDXKAQXEFIEYLIAGGPSSG
modifications: D-Tyr1; Aib2; αMeL13; Orn16; K17 conjugated to (2-[2-(2-Amino-ethoxy)-ethoxy]-acetyl)2-(γ-Glu)-CO-(CH2)18-CO2H; Aib20; C-terminal amide
On to B13, for which, in assay [1], the “hGIPR cAMP EC50 ratio” value came to 0.704 ratio and the “hGIPR cAMP Rel EC50” value came to 0.117 nM. In assay [2], the “hGLP1R cAMP EC50 ratio” value came to 0.172 ratio and the “hGLP1R cAMP Rel EC50” value is 0.186 nM.

B14: Example 370 (peptide)
peptide: XXEGTFTSDYSIXLDXKAQXEFIEYLIAGGPSSG
modifications: D-Tyr1, Aib2, αMeL13, Orn16, K17 conjugated to (2-[2-(2-Amino-ethoxy)-ethoxy]-acetyl)2-(γ-Glu)-CO-(CH2)18-CO2H, Aib20, C-terminal amide (NH2)
With B14, in assay [3], the “hGLP1R GTPgS % Top” value was 63.7% and the “hGLP1R GTPgS Rel EC50” value came to 0.428 nM. Further, in assay [4], the “hGLP1R B-Arrestin2 % Top” value came out at 23% and the “hGLP1R B-Arrestin2 Rel EC50” value amounted to 9.9 nM.
